From patent US20220267415A1 (University of Texas, published 2022) come the findings set out here.

In test [1] the target is T1, wild type RBD protein (generated as in Ku et al. 2021) (SARS-CoV-2, UniProt P0DTC2 319-541). Nature of the test: binding KD on RBD protein, generally as Example 4.
Test [2] deals with B.1.526 Iota variant spike protein on recombinant USA-WA1/2020 virus (SARS-CoV-2). Nature of the test: cell-based or functional assay.
The target in test [3] is T1, wild type RBD protein (generated as in …). Nature of the test: BLI competition, RBD on sensor, antibody then ACE2; competitor ACE2.
Test [4] has the same target.

B1: anti-SARS-CoV2-14 IgM (full lambda light chain) (antibody)
heavy: EVQLQQSGPGLVKPSQTLSLTCAISGDSVSSNSAAWNWIRQSPSRGLEWLGRTYYRSKWYNDYAVSVKSRITINPDTSKNQFSLQLNSVTPEDTAVYYCAREEQQLVHDYYYYGMDVWGQGTMVTVSSGSASAPTLFPLVSCENSPSDTSSVAVGCLAQDFLPDSITFSWKYKNNSDISSTRGFPSVLRGGKYAATSQVLLPSKDVMQGTDEHVVCKVQHPNGNKEKNVPLPVIAELPPKVSVFVPPRDGFFGNPRKSKLICQATGFSPRQIQVSWLREGKQVGSGVTTDQVQAEAKESGPTTYKVTSTLTIKESDWLSQSMFTCRVDHRGLTFQQNASSMCVPDQDTAIRVFAIPPSFASIFLTKSTKLTCLVTDLTTYDSVTISWTRQNGEAVKTHTNISESHPNATFSAVGEASICEDDWNSGERFTCTVTHTDLPSPLKQTISRPKGVALHRPDVYLLPPAREQLNLRESATITCLVTGFSPADVFVQWMQRGQPLSPEKYVTSAPMPEPQAPGRYFAHSILTVSEEEWNTGETYTCVVAHEALPNRVTERTVDKSTGKPTLYNVSLVMSDTAGTCY
light: QAVVTQPASVSGSPGQSITISCTGTSSDIGAYNYISWYQQHPGKAPKLIIYEVSNRPSGISYRFSGSKSGNTASLTISGLQAEDEANYYCSSYAGSISFGGGTKVTVLGQPKAAPSVTLFPPSSEELQANKATLVCLISDFYPGAVTVAWKADSSPVKAGVETTTPSKQSNNKYAASSYLSLTPEQWKSHRSYSCQVTHEGSTVEKTVAPTECS
chain: not shown
By Kd is commonly meant a measure of binding affinity in units of concentration. Lower therefore signals higher affinity. The term EC50 denotes the concentration at which the effect is half-maximal. A low value points to a more potent agent. One may read the EC50 (read off the curve) as the concentration at which the effect is half-maximal. High values mean a less potent agent, low ones a more potent agent. Molecule B1 had a Kd in test [1] of less than 0.001 nM. For the same molecule, in test [2], the “Fold-Increase in potency of IgM over IgG” value came to 5300 fold and the “Neutralization EC50 (PRNT)” value was found to be 0.032 µg/mL. For the same molecule, the EC50 in test [3] came to 0.86 nM. For the same molecule, the “EC50 (read off the curve)” value in test [4] is roughly 0.9 nM.

B2: anti-SARS-CoV2-14 IgG (full lambda light chain) (antibody, V domains shown)
VH: EVQLQQSGPGLVKPSQTLSLTCAISGDSVSSNSAAWNWIRQSPSRGLEWLGRTYYRSKWYNDYAVSVKSRITINPDTSKNQFSLQLNSVTPEDTAVYYCAREEQQLVHDYYYYGMDVWGQGTMVTVSS
VL: QAVVTQPASVSGSPGQSITISCTGTSSDIGAYNYISWYQQHPGKAPKLIIYEVSNRPSGISYRFSGSKSGNTASLTISGLQAEDEANYYCSSYAGSISFGGGTKVTVL
For B2, the “Neutralization EC50 (PRNT)” value in test [2] came to 170 µg/mL.
